This note sets out measurements from paper PMC7327498, “Structural basis of semaphorin‐plexin cis interaction” (The EMBO Journal, 2020).

The chains are these.
B3: PlexA1‐4‐mVenus (domain or fragment)
chain: QTLAANIWSDKTTAQNEPINLTNANAPIKNAKNLNSTITNVAAFDTKLNHLLVDTITGRVFVGGVNRLYQLSPDLELSETVKTGPQNDSVECSILDCPLNAVRSPTDNYNKVLLIDRATSRLIACGSLFQGTCTVRNLQNVSIIEHEVPDAVVANDANSSTVAFIAPGPPQHPVTNVMYVGVTYTNNSPYRSEIPAVASRSLEKTKMFQIASSAVTTGTRTFINSYARETYFVNYVYGFSSERFSYFLTTQLKHSHHSSPKEYITKLVRICQEDSNYYSYTEIPVECISDAQGGTKFNLVQAGFLGKPSSDLAQSLGISIQDDVLFAVFSKGEGNTPTNNSALCIYSLKSIRRKFMQNIKSCFNGSGMRGLDFISPSMPCVLTKLQTIGEDFCGLDVNSPLGGETPITSVPVAMFNTKLTSVAATSTSGYTVVFVGTSDGFLKKVVIESSSIANEYASFAVDLGSEINRDMQFDNQNLYIYVMSKTKVSKVKVFDCSDYKTCGDCLGARDPYCGWCSLENKCSPRSNCQDDANDPLYWVSYKTGKCTTITSVVPHQLQRTTARTLELIIDHLPQLKENLICAFTTEDKALFTNATKKRNGVNCTTPRTDMLPQIEQGKHHFTAKLSVRTRNGPDLVSTDFTFFDCSTHSSCTRCVSSEFPCDWCVEAHRCTHDTAENCRNDILVTGVSRIGPSYRSGPGFCPT

Assay [1] deals with B3. Kind of assay: MST.
Assay [2] addresses T1, PlexA1‐4‐mVenus (Drosophila melanogaster, UniProt Q9V491 28-730).
T1 construct: Plexin A (PlexA), Drosophila melanogaster, domains 1-4, residues 28–730; monoVenus follows PlexA1-4 and is followed by the His6 tag; source: HEK 293T, transient transfection, purified (HisTrap, SEC); not shown: mVenus, C-terminal, kept
T1 sequence (looked up): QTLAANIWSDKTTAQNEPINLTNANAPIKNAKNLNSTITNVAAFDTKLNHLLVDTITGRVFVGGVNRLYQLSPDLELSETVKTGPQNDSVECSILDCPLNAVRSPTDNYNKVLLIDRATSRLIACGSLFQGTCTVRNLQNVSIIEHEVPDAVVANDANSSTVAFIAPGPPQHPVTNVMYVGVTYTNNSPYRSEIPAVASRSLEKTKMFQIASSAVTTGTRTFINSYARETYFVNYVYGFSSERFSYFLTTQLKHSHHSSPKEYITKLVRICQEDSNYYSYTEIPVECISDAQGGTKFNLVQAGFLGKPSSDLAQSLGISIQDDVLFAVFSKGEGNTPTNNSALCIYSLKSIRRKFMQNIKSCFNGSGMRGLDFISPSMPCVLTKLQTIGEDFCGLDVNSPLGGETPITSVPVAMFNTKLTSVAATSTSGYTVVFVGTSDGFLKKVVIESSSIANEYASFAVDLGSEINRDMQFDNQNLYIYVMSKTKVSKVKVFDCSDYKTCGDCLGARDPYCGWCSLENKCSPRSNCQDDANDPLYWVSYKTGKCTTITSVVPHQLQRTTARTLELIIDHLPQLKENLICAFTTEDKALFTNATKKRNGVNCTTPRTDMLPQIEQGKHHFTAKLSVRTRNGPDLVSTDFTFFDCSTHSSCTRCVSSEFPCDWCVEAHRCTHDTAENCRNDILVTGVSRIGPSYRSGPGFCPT
Kind of assay: MST; fluorescent PlexA1‐4‐mVenus kept constant, unlabelled Sema1b_(ecto) or mutants titrated; 28°C, 15 mM HEPES pH 7.4, 150 mM NaCl, 2 mM CaCl2, 0.05% Tween‐20; 80% MST power. Conditions: both partners purified.

The target of a further assay is T2, Sema1b_(ecto)‐mutB (Drosophila melanogaster, UniProt Q7KK54 37-659, loop 350–367 was replaced with 18 alanine residues).
T2 sequence: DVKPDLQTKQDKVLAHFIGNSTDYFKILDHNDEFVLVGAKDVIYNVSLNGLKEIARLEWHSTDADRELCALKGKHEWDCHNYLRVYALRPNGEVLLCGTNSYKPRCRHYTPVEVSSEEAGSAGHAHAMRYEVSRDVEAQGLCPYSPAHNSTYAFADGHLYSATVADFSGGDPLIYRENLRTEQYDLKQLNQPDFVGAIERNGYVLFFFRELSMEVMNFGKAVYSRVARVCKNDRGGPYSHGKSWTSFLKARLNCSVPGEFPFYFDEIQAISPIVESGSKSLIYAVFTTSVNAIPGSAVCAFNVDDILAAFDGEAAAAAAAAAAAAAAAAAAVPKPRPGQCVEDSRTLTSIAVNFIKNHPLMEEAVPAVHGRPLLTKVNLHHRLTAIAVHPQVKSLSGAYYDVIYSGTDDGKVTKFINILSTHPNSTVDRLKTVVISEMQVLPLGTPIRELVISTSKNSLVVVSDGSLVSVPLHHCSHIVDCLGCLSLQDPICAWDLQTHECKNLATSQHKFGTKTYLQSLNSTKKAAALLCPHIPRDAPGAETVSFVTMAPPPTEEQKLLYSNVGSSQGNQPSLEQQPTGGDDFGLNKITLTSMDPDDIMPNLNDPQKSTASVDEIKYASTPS
Kind of assay: MST.

Another assay concerns the target T3, Sema1b_(ecto)‐mutA (Drosophila melanogaster, UniProt Q7KK54 37-659, F203E | Q219R | K223E).
T3 sequence: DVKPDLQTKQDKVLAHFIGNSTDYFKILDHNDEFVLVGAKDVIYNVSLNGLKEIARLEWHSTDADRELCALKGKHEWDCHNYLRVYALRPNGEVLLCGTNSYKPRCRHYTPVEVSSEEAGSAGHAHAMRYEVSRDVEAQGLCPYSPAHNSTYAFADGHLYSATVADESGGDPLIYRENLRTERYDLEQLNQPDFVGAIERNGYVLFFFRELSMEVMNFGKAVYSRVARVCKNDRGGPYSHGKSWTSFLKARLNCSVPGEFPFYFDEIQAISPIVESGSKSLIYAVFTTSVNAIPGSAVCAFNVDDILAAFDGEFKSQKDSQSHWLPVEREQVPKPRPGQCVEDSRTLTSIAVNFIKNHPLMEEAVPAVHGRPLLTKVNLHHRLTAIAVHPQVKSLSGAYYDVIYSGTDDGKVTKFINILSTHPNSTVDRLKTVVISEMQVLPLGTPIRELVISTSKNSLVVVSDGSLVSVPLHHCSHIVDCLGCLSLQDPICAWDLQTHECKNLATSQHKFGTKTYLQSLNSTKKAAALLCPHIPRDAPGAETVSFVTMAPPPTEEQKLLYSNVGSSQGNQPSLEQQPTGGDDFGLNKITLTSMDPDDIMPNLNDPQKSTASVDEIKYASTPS
Description: MST.

B1: Sema1b_(ecto) (domain or fragment, Drosophila melanogaster, UniProt Q7KK54 37-659, looked up)
chain: DVKPDLQTKQDKVLAHFIGNSTDYFKILDHNDEFVLVGAKDVIYNVSLNGLKEIARLEWHSTDADRELCALKGKHEWDCHNYLRVYALRPNGEVLLCGTNSYKPRCRHYTPVEVSSEEAGSAGHAHAMRYEVSRDVEAQGLCPYSPAHNSTYAFADGHLYSATVADFSGGDPLIYRENLRTEQYDLKQLNQPDFVGAIERNGYVLFFFRELSMEVMNFGKAVYSRVARVCKNDRGGPYSHGKSWTSFLKARLNCSVPGEFPFYFDEIQAISPIVESGSKSLIYAVFTTSVNAIPGSAVCAFNVDDILAAFDGEFKSQKDSQSHWLPVEREQVPKPRPGQCVEDSRTLTSIAVNFIKNHPLMEEAVPAVHGRPLLTKVNLHHRLTAIAVHPQVKSLSGAYYDVIYSGTDDGKVTKFINILSTHPNSTVDRLKTVVISEMQVLPLGTPIRELVISTSKNSLVVVSDGSLVSVPLHHCSHIVDCLGCLSLQDPICAWDLQTHECKNLATSQHKFGTKTYLQSLNSTKKAAALLCPHIPRDAPGAETVSFVTMAPPPTEEQKLLYSNVGSSQGNQPSLEQQPTGGDDFGLNKITLTSMDPDDIMPNLNDPQKSTASVDEIKYASTPS
notes: Semaphorin 1b (Sema1b), Drosophila melanogaster, ectodomain, residues 37–659; pHLsec vector; monomer in solution according to the authors' earlier work; also called Sema1b ectodomain; wild-type Sema1b_(ecto); source: HEK 293T, transient transfection, purified from conditioned medium (HisTrap, SEC)
For orientation: Kd means the concentration at which binding is half-saturated. Molecule B1 displayed an equilibrium dissociation constant (Kd) in the assay with PlexA1‐4‐mVenus [1] of 586 nM. In the assay with PlexA1‐4‐mVenus [2], the binding result is listed as “binds”.

B2: Sema1b_(ecto)‐mutA (domain or fragment, Drosophila melanogaster, UniProt Q7KK54 37-659, looked up)
chain: DVKPDLQTKQDKVLAHFIGNSTDYFKILDHNDEFVLVGAKDVIYNVSLNGLKEIARLEWHSTDADRELCALKGKHEWDCHNYLRVYALRPNGEVLLCGTNSYKPRCRHYTPVEVSSEEAGSAGHAHAMRYEVSRDVEAQGLCPYSPAHNSTYAFADGHLYSATVADESGGDPLIYRENLRTERYDLEQLNQPDFVGAIERNGYVLFFFRELSMEVMNFGKAVYSRVARVCKNDRGGPYSHGKSWTSFLKARLNCSVPGEFPFYFDEIQAISPIVESGSKSLIYAVFTTSVNAIPGSAVCAFNVDDILAAFDGEFKSQKDSQSHWLPVEREQVPKPRPGQCVEDSRTLTSIAVNFIKNHPLMEEAVPAVHGRPLLTKVNLHHRLTAIAVHPQVKSLSGAYYDVIYSGTDDGKVTKFINILSTHPNSTVDRLKTVVISEMQVLPLGTPIRELVISTSKNSLVVVSDGSLVSVPLHHCSHIVDCLGCLSLQDPICAWDLQTHECKNLATSQHKFGTKTYLQSLNSTKKAAALLCPHIPRDAPGAETVSFVTMAPPPTEEQKLLYSNVGSSQGNQPSLEQQPTGGDDFGLNKITLTSMDPDDIMPNLNDPQKSTASVDEIKYASTPS
notes: Semaphorin 1b (Sema1b), Drosophila melanogaster, ectodomain, residues 37–659, site A mutant; also called Sema1b‐mutA; Sema1b‐mutant A; source: HEK 293T, transient transfection, purified (HisTrap, SEC)
Turning to B2, the binding result with PlexA1‐4‐mVenus [2] is listed as “binds”.
With B3, the Kd came to 74 nM in the assay with Sema1b_(ecto)‐mutB and 1240 nM with Sema1b_(ecto)‐mutA.
